Article doi:10.1101/2022.03.07.483330 (bioRxiv, 2022)

B1: human Notch2 (EGF6-13, residues 221-530), biotinylated (domain or fragment, UniProt Q04721 221-530, looked up)
chain: LYVPCAPSPCVNGGTCRQTGDFTFECNCLPGFEGSTCERNIDDCPNHRCQNGGVCVDGVNTYNCRCPPQWTGQFCTEDVDECLLQPNACQNGGTCANRNGGYGCVCVNGWSGDDCSENIDDCAFASCTPGSTCIDRVASFSCMCPEGKAGLLCHLDDACISNPCHKGALCDTNPLNGQYICTCPQGYKGADCTEDVDECAMANSNPCEHAGKCVNTDGAFHCECLKGYAGPRCEMDINECHSDPCQNDATCLDKIGGFTCLCMPGFKGVHCELEINECQSNPCVNNGQCVDKVNRFQCLCPPGFTGPVCQ
modifications: biotin on the C-terminal BAP-tag (BirA)
B2: human Notch4 (EGF7-12, residues 276-511), biotinylated (domain or fragment, UniProt Q99466 276-511, looked up)
chain: NPDNCVSHQCQNGGTCQDGLDTYTCLCPETWTGWDCSEDVDECETQGPPHCRNGGTCQNSAGSFHCVCVSGWGGTSCEENLDDCIAATCAPGSTCIDRVGSFSCLCPPGRTGLLCHLEDMCLSQPCHGDAQCSTNPLTGSTLCLCQPGYSGPTCHQDLDECLMAQQGPSPCEHGGSCLNTPGSFNCLCPPGYTGSRCEADHNECLSQPCHPGSTCLDLLATFHCLCPPGLEGQLCE
modifications: biotin on the C-terminal BAP-tag (BirA)
B3: human Notch3 (EGF5-12, residues 197-505), biotinylated (domain or fragment, UniProt Q9UM47 197-505, looked up)
chain: PAVPCAPSPCRNGGTCRQSGDLTYDCACLPGFEGQNCEVNVDDCPGHRCLNGGTCVDGVNTYNCQCPPEWTGQFCTEDVDECQLQPNACHNGGTCFNTLGGHSCVCVNGWTGESCSQNIDDCATAVCFHGATCHDRVASFYCACPMGKTGLLCHLDDACVSNPCHEDAICDTNPVNGRAICTCPPGFTGGACDQDVDECSIGANPCEHLGRCVNTQGSFLCQCGRGYTGPRCETDVNECLSGPCRNQATCLDRIGQFTCICMAGFTGTYCEVDIDECQSSPCVNGGVCKDRVNGFSCTCPSGFSGSTCQ
modifications: biotin on the C-terminal BAP-tag (BirA)
B4: mouse Notch1 (EGF6-13, residues 221-526), biotinylated (domain or fragment, UniProt Q01705 221-526, looked up)
chain: PCSPSPCQNGGTCRPTGDTTHECACLPGFAGQNCEENVDDCPGNNCKNGGACVDGVNTYNCRCPPEWTGQYCTEDVDECQLMPNACQNGGTCHNTHGGYNCVCVNGWTGEDCSENIDDCASAACFQGATCHDRVASFYCECPHGRTGLLCHLNDACISNPCNEGSNCDTNPVNGKAICTCPSGYTGPACSQDVDECALGANPCEHAGKCLNTLGSFECQCLQGYTGPRCEIDVNECISNPCQNDATCLDQIGEFQCICMPGYEGVYCEINTDECASSPCLHNGHCMDKINEFQCQCPKGFNGHLCQ
modifications: biotin on the C-terminal BAP-tag (BirA)

What was measured:
DLL4.v2 (N-EGF5) = DLL4.v2 (N-EGF5) (human, UniProt Q9NR61 27-400, N257P | T271L | F280Y | S301R | Q305P); test: SPR
Chain of DLL4.v2 (N-EGF5) (Q9NR61 27-400 N257P/T271L/F280Y/S301R/Q305P): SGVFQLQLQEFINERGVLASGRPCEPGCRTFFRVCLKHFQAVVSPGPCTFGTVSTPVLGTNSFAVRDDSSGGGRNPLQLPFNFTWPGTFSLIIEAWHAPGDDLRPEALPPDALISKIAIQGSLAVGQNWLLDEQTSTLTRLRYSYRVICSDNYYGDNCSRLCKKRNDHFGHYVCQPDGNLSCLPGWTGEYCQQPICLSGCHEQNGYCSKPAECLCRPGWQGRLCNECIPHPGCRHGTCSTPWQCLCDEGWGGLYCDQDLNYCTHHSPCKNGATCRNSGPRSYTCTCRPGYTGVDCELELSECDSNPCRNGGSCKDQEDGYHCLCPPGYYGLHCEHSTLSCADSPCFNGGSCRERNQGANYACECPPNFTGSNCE

[1] = target: human wild-type DLL4 (N-EGF5, residues 27-400) (human, UniProt Q9NR61 27-400); test: SPR
Chain of human wild-type DLL4 (N-EGF5, residues 27-400) (Q9NR61 27-400): as the sequence (Q9NR61 27-400 N257P/T271L/F280Y/S301R/Q305P) above, with P231N, L245T, Y254F, R275S, P279Q counted along it

Row | Binder | binding result (DLL4.v2 (N-EGF5)) | binding result [1]
1 | B1 | binds | binds
2 | B2 | binds | binds
3 | B3 | binds | binds
4 | B4 | binds | binds
